Measured values reported in US20050245453A1 (MOUNT SINAI SCHOOL OF MEDICINE OF NEW YORK UNIVERSITY, published 2005).

Target: Presenilin-1 (PS1) (human, UniProt P49768 1-467)
Test: co-immunoprecipitation with anti-PS1/NTF R222 from transfected A431D cell extracts, Western blot with C36
Description: Immunoprecipitations (IPs), immunoblotting, immunofluorescence and confocal microscopy. For WB analysis of cell extracts, cells were washed with PBS and then solubilized in RIPA buffer. For IPs cells were solubilized in Hepes buffer (25 mM Hepes [pH 7.4], 150 mM NaCl, 1× Complete protease inhibitor cocktail, Roche) containing 1% digitonin (IPs with I-R222 and PI-R222 antibodies) or 1% Triton X-100 (IPs with β-catenin and desmoglein antibodies). Following centrifugation at 17,000×g for 10 min, supernatants (1 mg protein) were pre-cleared with protein A- or protein G-agarose (Pierce) for 2 hours. Supernatants were then incubated with antibodies overnight at 4° C. and treated for 2 hours with protein A-agarose (polyclonal antibodies) or with protein G-agarose (monoclonal antibodies). IPs were washed with Hepes buffer containing either 1% digitonin or 1% Triton X-100 and analyzed by SDS-PAGE. Immunofluorescence and confocal microscopy was performed as described by Georgakopoulos et al., (1999). Briefly, cells were plated on 22×22 mm collagen-coated glass coverslips, fixed in cold methanol for 10 min at −20° C. […]

B1: E-cadherin mutant GGG759-761AAA (receptor)
chain: DWVIPPISCPENEKGPFPKNLVQIKSNKDKEGKVFYSITGQGADTPPVGVFIIERETGWLKVTEPLDRERIATYTLFSHAVSSNGNAVEDPMEILITVTDQNDNKPEFTQEVFKGSVMEGALPGTSVMEVTATDADDDVNTYNAAIAYTILSQDPELPDKNMFTINRNTGVISVVTTGLDRESFPTYTLVVQAADLQGEGLSTTATAVITVTDTNDNPPIFNPTTYKGQVPENEANVVITTLKVTDADAPNTPAWEAVYTILNDDGGQFVVTTNPVNNDGILKTAKGLDFEAKQQYILHVAVTNVVPFEVSLTTSTATVTVDVLDVNEAPIFVPPEKRVEVSEDFGVGQEITSYTAQEPDTFMEQKITYRIWRDTANWLEINPDTGAISTRAELDREDFEHVKNSTYTALIIATDNGSPVATGTGTLLLILSDVNDNAPIPEPRTIFFCERNPKPQVINIIDADLPPNTSPFTAELTHGASANWTIQYNDPTQESIILKPKMALEVGDYKINLKLMDNQNKDQVTTLEVSVCDCEGAAGVCRKAQPVEAGLQIPAILGILGGILALLILILLLLLFLRRRAVVKEPLLPPEDDTRDNVYYYDEEAAAEEDQDFDLSQLHRGLDARPEVTRNDVAPTLMSVPRYLPRPANPDEIGNFIDENLKAADTDPTAPPYDSLLVFDYEGSGSEAASLSSLNSSESDKDQDYDYLNEWGNRFKKLADMYGGGEDD
notes: whole, on cells; Numbering on the unprocessed human E-cadherin precursor; Assayed in cell extracts by co-immunoprecipitation; also called mutant E-cadherin
binding result: no binding
